Reference: patent US20250230247A1 (DREN BIO, published 2025)
Positions count from the first letter of the chain named. Names and notes keep the numbering of the source.

Columns and labels:
[1] = biological target: T1, Trop-2 (human, UniProt P09758 27-323); experiment: flow cytometry on SiHa cells, AF647 goat anti-human secondary, 4PL fit; curve still rising (about 89,000 MFI) at the highest concentration, 300 nM
T1 construct: whole, on cells; also called Trop-2 on A431, HeLa, BxPC-3, SiHa and Capan-2 cells
T1 sequence (looked up): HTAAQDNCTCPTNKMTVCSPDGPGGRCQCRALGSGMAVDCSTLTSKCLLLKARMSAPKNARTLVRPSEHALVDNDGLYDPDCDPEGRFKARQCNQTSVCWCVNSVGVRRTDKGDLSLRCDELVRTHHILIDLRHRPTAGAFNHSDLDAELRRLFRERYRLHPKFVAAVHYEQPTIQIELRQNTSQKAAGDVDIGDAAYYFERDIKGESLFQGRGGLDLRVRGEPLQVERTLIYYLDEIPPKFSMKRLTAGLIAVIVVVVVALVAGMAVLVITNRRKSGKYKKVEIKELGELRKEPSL

[2] = biological target: T1, Trop-2; experiment: flow cytometry on HeLa cells, AF647 goat anti-human secondary, 4PL fit; curve plateaus at about 145,000 MFI at 100-300 nM
[3] = biological target: T1, Trop-2; experiment: flow cytometry on A431 cells (MFI)
[4] = biological target: T2, human Dectin-1 isoform A (human, UniProt Q9BXN2 1-247); experiment: flow cytometry on HEK Blue Dectin 1a cells (MFI)
T2 construct: also called hDectin-1a; Dectin-1 on HEK-Blue hDectin-1a cells
T2 sequence: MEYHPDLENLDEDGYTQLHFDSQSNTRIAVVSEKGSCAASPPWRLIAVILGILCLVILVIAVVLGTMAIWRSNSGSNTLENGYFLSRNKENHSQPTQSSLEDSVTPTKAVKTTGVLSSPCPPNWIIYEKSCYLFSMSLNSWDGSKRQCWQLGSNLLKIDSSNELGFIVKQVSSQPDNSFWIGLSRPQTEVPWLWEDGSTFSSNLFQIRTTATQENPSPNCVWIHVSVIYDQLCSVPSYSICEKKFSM

[5] = biological target: T1, Trop-2; experiment: flow cytometry on Capan-2 cells, AF647 goat anti-human secondary, 4PL fit; curve reaches about 1,720,000 MFI at 300 nM and starts to flatten
[6] = biological target: T1, Trop-2; experiment: flow cytometry on BxPC-3 cells, AF647 goat anti-human secondary, 4PL fit; curve still rising (about 3,500,000 MFI) at the highest concentration, 300 nM
[7] = biological target: T2, human Dectin-1 isoform A; experiment: flow cytometry, HEK-Blue hDectin-1a cells
[8] = biological target: T3, Nectin-4 (UniProt Q96NY8 32-510, limits assumed); experiment: flow cytometry on Nectin-4-expressing A431 cells (lower panel), AF647 goat anti-human IgG secondary, 4PL fit; curve still rising (about 92,000 MFI) at 300 nM, no plateau
T3 construct: whole, on cells; also called PVRL4; Nectin-4 on A431 cells
T3 sequence (looked up): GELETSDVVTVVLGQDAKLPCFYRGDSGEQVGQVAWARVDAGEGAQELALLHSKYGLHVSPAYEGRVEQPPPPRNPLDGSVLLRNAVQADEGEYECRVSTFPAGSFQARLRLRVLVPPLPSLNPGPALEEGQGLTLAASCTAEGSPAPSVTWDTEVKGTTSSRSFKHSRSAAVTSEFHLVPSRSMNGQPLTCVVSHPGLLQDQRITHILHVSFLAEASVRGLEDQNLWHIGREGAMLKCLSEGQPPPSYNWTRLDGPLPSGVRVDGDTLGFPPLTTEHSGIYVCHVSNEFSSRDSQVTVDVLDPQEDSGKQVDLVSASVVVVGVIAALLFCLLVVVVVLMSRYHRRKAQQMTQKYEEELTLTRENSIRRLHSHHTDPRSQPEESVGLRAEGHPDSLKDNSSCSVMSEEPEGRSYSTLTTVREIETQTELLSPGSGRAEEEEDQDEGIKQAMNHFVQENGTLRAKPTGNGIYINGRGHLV

[9] = biological target: T4, human Dectin-1 (biosensor tests of Tables 3, 4A and 9; construct not stated) (human, UniProt Q9BXN2 66-247, limits assumed); experiment: Fab K dis, run 2
T4 construct: also called hDectin-1
T4 sequence (looked up): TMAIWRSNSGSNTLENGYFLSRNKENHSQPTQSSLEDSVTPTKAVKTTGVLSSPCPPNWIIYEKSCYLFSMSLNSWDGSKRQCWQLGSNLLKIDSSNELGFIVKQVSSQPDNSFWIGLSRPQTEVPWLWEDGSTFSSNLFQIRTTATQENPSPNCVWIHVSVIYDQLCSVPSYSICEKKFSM

[10] = biological target: T4, human Dectin-1 (biosensor tests of …); experiment: Fab K dis, average of 3
[11] = biological target: T4, human Dectin-1 (biosensor tests of …); experiment: Fab K dis, run 1
[12] = biological target: T4, human Dectin-1 (biosensor tests of …); experiment: Fab K dis, run 3
[13] = biological target: T4, human Dectin-1 (biosensor tests of …); experiment: Octet
[14] = biological target: T4, human Dectin-1 (biosensor tests of …); experiment: Octet, single point off rate fit
[15] = biological target: T4, human Dectin-1 (biosensor tests of …); experiment: Octet response; on X = 340: time not given here; on X = 470: time not given here
[16] = biological target: T4, human Dectin-1 (biosensor tests of …); experiment: Fab K dis, average of 3; remark: listed apart in the source
[17] = biological target: T4, human Dectin-1 (biosensor tests of …); experiment: Fab K dis, run 1; remark: listed apart in the source
[18] = biological target: T4, human Dectin-1 (biosensor tests of …); experiment: Fab K dis, run 3; remark: listed apart in the source
[19] = biological target: T4, human Dectin-1 (biosensor tests of …); experiment: Fab K dis, run 2; remark: listed apart in the source
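Wherever delta is given: Single-point dissociation rate (koff) fit for each variant binding domain, expressed as change versus the parental clone.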

B1: 2M24/Trop-2 hIgG1 bispecific antibody (bispecific antibody, V domains shown)
VH 1: QVQLVQSGAEVKKPGASVKVSCKSSGYTFTDYYIHWVRQAPGQGLEWMGWINPNSGDTNYAQKFQGRITMTRDTSISTAYLELSRLRSDDTAVFYCARNSGSYSFGYWGQGTLVTVSS
VL 1: DIQMTQSPSSVSASVGDRVTITCRASQGISSWLAWYQQKPGKAPKLLIFGASSLQSGVPSRFSGSGSGTDFTLTVSSLQPEDFATYYCQQAYSFPFTFGPGTKVDIE
VH 2: QVQLQQSGSELKKPGASVKVSCKASGYTFTNYGMNWVKQAPGQGLKWMGWINTYTGEPTYTDDFKGRFAFSLDTSVSTAYLQISSLKADDTAVYFCARGGFGSSYWYFDVWGQGSLVTVSS
VL 2: DIQLTQSPSSLSASVGDRVSITCKASQDVSIAVAWYQQKPGKAPKLLIYSASYRYTGVPDRFSGSGSGTDFTLTISSLQPEDFAVYYCQQHYITPLTFGAGTKVEIK
notes: human IgG1; also called anti-Dectin-1 (2M24)/anti-Trop-2 bispecific antibody
[1]
  EC50: 77.4 nM
[2]
  EC50: 26.2 nM
[3]
  EC50: 9.04 nM
[4]
  EC50: 0.958 nM
[5]
  EC50: 59.4 nM
[6]
  EC50: 348 nM

B2: parental anti-Trop2 monospecific antibody (antibody, V domains shown)
VH: B1 VH 2
VL: B1 VL 2
[3]
  EC50: 5.21 nM

B3: fully human 2M24 anti-Dectin-1 antibody (hIgG4) (antibody, V domains shown)
VH: B1 VH 1
VL: B1 VL 1
notes: human IgG4; also called 2M24 (hIgG4); hIgG4 2M24
[7]
  EC50: 1.6 nM

B4: 2M24/Nectin-4 hIgG1 bispecific antibody (bispecific antibody, V domains shown)
VH 1: B1 VH 1
VL 1: B1 VL 1
VH 2: EVQLVESGGGLVQPGGSLRLSCAASGFTFSSYNMNWVRQAPGKGLEWVSYISSSSSTIYYADSVKGRFTISRDNAKNSLSLQMNSLRDEDTAVYYCARAYYYGMDVWGQGTTVTVSS
VL 2: DIQMTQSPSSVSASVGDRVTITCRASQGISGWLAWYQQKPGKAPKFLIYAASTLQSGVPSRFSGSGSGTDFTLTISSLQPEDFATYYCQQANSFPPTFGGGTKVEIK
notes: human IgG1; DuetMab mutations F126C and C220V (heavy), S121C and C214V (light)
[8]
  EC50: ~32 nM

B5: 2M24.116/Trop2 bispecific antibody (bispecific antibody, V domains shown)
VH 1: B1 VH 1 with S24A, I34M, S55E, G66E, L81M, F94Y, S100T, S102A
VL 1: B1 VL 1 with F49Y, S53D, V75I, Q89H, E107K
VH 2: B1 VH 2
VL 2: B1 VL 2
notes: hIgG1
[3]
  EC50: 8.35 nM
[4]
  EC50: 1.76 nM

B6: 2M24A.33 hFab L4 (Fab, V domains shown)
VH: B1 VH 1
VL: B1 VL 1 with F49Y, G50A, V75I
notes: Fab; also called 2M24.L4
[9]
  koff: 0.00278 s⁻¹
[10]
  koff: 0.00402 s⁻¹
[11]
  koff: 0.00615 s⁻¹
[12]
  koff: 0.00314 s⁻¹

B7: 2M24A.1.14 hFab (Fab, V domains shown)
VH: B1 VH 1 with Y103A
VL: B1 VL 1
notes: Fab; also called 2M24.1.14
[13]
  delta: 100%
[14]
  koff: 0.313 s⁻¹
[15]
  X = 340: 0.106
  X = 470: 0

B8: 2M24A.28 hFab H6 (Fab, V domains shown)
VH: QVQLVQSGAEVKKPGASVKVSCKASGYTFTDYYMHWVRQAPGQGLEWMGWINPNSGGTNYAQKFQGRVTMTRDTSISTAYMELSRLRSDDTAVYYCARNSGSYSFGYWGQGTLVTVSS
VL: B1 VL 1
notes: Fab; also called 2M24.H6
[16]
  koff: 0.00221 s⁻¹
[17]
  koff: 0.00412 s⁻¹
[18]
  koff: 0.00151 s⁻¹
[19]
  koff: 0.000995 s⁻¹

B9: 2M24A.30 hFab L1 (Fab, V domains shown)
VH: B1 VH 1
VL: B1 VL 1 with V75I
notes: Fab; also called 2M24.L1
[9]
  koff: 0.00208 s⁻¹
[10]
  koff: 0.00351 s⁻¹
[11]
  koff: 0.00631 s⁻¹
[12]
  koff: 0.00213 s⁻¹

B10: 2M24A.1.15 (Fab, V domains shown)
VH: B1 VH 1 with R98A
VL: B1 VL 1
notes: Fab; also called 2M24.1.15
[13]
  delta: 62%
[14]
  koff: 0.0239 s⁻¹
[15]
  X = 290: 0.082
  X = 350: 0.0314

B11: 2M24.119/Trop2 bispecific antibody (bispecific antibody, V domains shown)
VH 1: B1 VH 1 with S24A, I34M, S55E, Q65E, L81M, F94Y, S100T, S102A
VL 1: B1 VL 1 with F49Y, S53D, V75I, S93G, E107K
VH 2: B1 VH 2
VL 2: B1 VL 2
notes: hIgG1
[3]
  EC50: 7.87 nM
[4]
  EC50: 1.3 nM

B12: 2M24A.27 hFab H5 (Fab, V domains shown)
VH: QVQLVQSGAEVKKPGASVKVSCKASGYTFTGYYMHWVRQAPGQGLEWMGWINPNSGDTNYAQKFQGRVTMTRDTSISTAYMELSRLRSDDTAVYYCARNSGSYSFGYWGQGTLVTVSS
VL: B1 VL 1
notes: Fab; also called 2M24.H5
[16]
  koff: 0.0038 s⁻¹
[17]
  koff: 0.00624 s⁻¹
[18]
  koff: 0.0032 s⁻¹
[19]
  koff: 0.00195 s⁻¹

B13: 2M24A.31 hFab L2 (Fab, V domains shown)
VH: B1 VH 1
VL: B1 VL 1 with F49Y, V75I
notes: Fab; also called 2M24.L2
[9]
  koff: 0.00236 s⁻¹
[10]
  koff: 0.0037 s⁻¹
[11]
  koff: 0.00635 s⁻¹
[12]
  koff: 0.00239 s⁻¹

B14: 2M24A.32 hFab L3 (Fab, V domains shown)
VH: B1 VH 1
VL: B1 VL 1 with G50A, V75I
notes: Fab; also called 2M24.L3
[9]
  koff: 0.00223 s⁻¹
[10]
  koff: 0.00376 s⁻¹
[11]
  koff: 0.00671 s⁻¹
[12]
  koff: 0.00233 s⁻¹
